{
  "source": "paper PMC5758712",
  "about": "(2018)",
  "binders": {"B1": {"name": "HHARI (protein)", "chain": "TRSSAQDMPCQICYLNYPNSYFTGLECGHKFCMQCWSEYLTTKIMEEGMGQTISCPAHGCDILVDDNTVMRLITDSKVKLKYQHLITNSFVECN"}, "B2": {"name": "TRIAD3A (protein)", "chain": "not shown"}},
  "key": {"UBE2D1": {"biological_target": "UBE2D1 (Homo sapiens (Human), UniProt P51668)", "sequence (P51668 whole entry, the tested form may be a part)": "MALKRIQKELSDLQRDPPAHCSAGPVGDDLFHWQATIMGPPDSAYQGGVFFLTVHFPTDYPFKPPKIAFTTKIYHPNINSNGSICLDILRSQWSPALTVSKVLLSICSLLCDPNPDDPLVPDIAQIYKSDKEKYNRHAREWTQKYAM", "test": "ITC; UbcH7 cells RING1 fragment, UbcH5A cells whole RBR"}, "UBE2L3": {"biological_target": "UBE2L3 (Homo sapiens (Human), UniProt P68036)", "sequence (P68036 whole entry, the tested form may be a part)": "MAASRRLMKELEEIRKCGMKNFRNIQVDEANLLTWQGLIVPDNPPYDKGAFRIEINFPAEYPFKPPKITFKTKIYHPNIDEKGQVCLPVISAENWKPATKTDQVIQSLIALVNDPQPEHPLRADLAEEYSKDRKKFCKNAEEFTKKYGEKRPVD", "test": "ITC; UbcH7 cells RING1 fragment, UbcH5A cells whole RBR"}},
  "data": [
    {"binder": "B1", "values": [
      {"measurement": "Kd", "setting": "UBE2D1", "value": "> 50", "unit": "µM"},
      {"measurement": "Kd", "setting": "UBE2L3", "value": 210, "unit": "nM"}
    ]},
    {"binder": "B2", "values": [
      {"measurement": "Kd", "setting": "UBE2D1", "value": "> 50", "unit": "µM"},
      {"measurement": "Kd", "setting": "UBE2L3", "value": 3200, "unit": "nM"}
    ]}
  ]
}
